Measurements taken from the supplement of paper PMC10724198.
± gives the standard deviation of the averaged measurements.

System: Saccharomyces cerevisiae
Experiment: protein stability index of tFT-peptide fusion (C-terminal peptide) (PSI (0-1 scale)); higher = more stable (slower turnover)
Settings: genetic background: wild type; temperature: 30 C
Protocol: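 Multiplexed protein stability (MPS) profiling in S. cerevisiae. Random 12-aa peptides (tFT-X12 library) are fused to the C-terminus of a sfGFP-mCherry tandem fluorescent timer, after mCherry and a GGGS linker. Cells are FACS-sorted into 8 mCherry/sfGFP bins and deep-sequenced. The protein stability index (PSI) is the read-weighted bin average, scaled from 0 (unstable) to 1 (stable). Only peptides with >10 reads are reported; cells were grown at 30 °C in SC-His with glucose.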
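Note: PSI is a weighted mean of sequencing reads over stability bins, variants kept only with over 10 reads, mCherry proximal and sfGFP distal, peptide attached via GGGS linker.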

Sequence | protein stability index
GLVVATECGGRP | 0.648 ± 0.024
GLVVWFFQSPHF | 0.597 ± 0.036
GLYAVHEAGWRP | 0.701 ± 0.089
GLYVDRTVEVGG | 0.6228 ± 0.0035
GMADVCRVGSRG | 0.674 ± 0.033
GMRAGLGRWRSM | 0.737 ± 0.1
GNELLINRVKPR | 0.698 ± 0.0085
GNGRGKKEGPKN | 0.657 ± 0.01
GNIKPNEDRGGP | 0.793 ± 0.027
GNRVGQREEIEK | 0.655 ± 0.023
GNRWSLTVTPNR | 0.69 ± 0.028
GNSAGSGGGGRF | 0.706 ± 0.061
GNSNDPALQPKQ | 0.68 ± 0.044
GPALLLHRLTAP | 0.684 ± 0.066
GPCPHLGLVVES | 0.703 ± 0.34
GPFPMRRTFRFA | 0.667 ± 0.056
GPGRGWQGGPKL | 0.739 ± 0.023
GPIGVMLCNHHS | 0.674 ± 0.015
GPPPAPPPLDAL | 0.734 ± 0.053
GPPPPATPTPPR | 0.767 ± 0.075
GPRSLVEITITD | 0.669 ± 0.029
GPSLLAAQAHTN | 0.704 ± 0.038
GPSQLRLSSCSF | 0.716 ± 0.041
GPSTPPPRAPGT | 0.7045 ± 0.0031
GPTPAPSASRCF | 0.6114 ± 0.0058

Sequence | protein stability index
GPVFLPLFWAGV | 0.6846 ± 0.0051
GPVGPGECYDYT | 0.706 ± 0.00044
GPVLILLSNNEM | 0.731 ± 0.061
GPVTPADASPHC | 0.686 ± 0.034
GQFASFQSTRPP | 0.754 ± 0.077
GQGKWGGGGDER | 0.68276 ± 0.0003
GQKRKKKGGKEE | 0.685 ± 0.065
GQLAERYRPARP | 0.6903 ± 0.003
GQNASYFPRRTG | 0.643 ± 0.052
GQRGGRGKENSD | 0.629 ± 0.04
GQTTVLPSIYKR | 0.673 ± 0.047
GQWCGRLLRSGS | 0.6845 ± 0.0059
GRCWAGAMGVVG | 0.71 ± 0.015
GRETGGGKSRRK | 0.687 ± 0.013
GRFKLCWWCCGV | 0.724 ± 0.035
GRGAKPYIKQVY | 0.721 ± 0.034
GRGGGGGLWVRV | 0.651 ± 0.023
GRGGSIGEEWGG | 0.693 ± 0.021
GRGLFRVVGLWV | 0.614 ± 0.043
GRGLRWSWGCGG | 0.693 ± 0.064
GRGLVSWEAGGV | 0.716 ± 0.018
GRKSESEEEQRR | 0.677 ± 0.052
GRLHHYGRCAQG | 0.664 ± 0.02
GRLPPYLSRRLR | 0.7039 ± 0.0012
GRLWGGIKGGMG | 0.663 ± 0.0096

Sequence | protein stability index
GRRLSGWGAWVV | 0.724 ± 0.063
GRSAVRADFPFF | 0.703 ± 0.16
GRSITTSCTTER | 0.673 ± 0.036
GRSNRRPWRSGL | 0.649 ± 0.018
GRTDRPTDINSN | 0.677 ± 0.052
GRTNQKKEWIIR | 0.718 ± 0.01
GRVAGNERGGGR | 0.6083 ± 0.006
GRVGCGRNRLWS | 0.67 ± 0.053
GRVGFSRSFKCC | 0.641 ± 0.14
GRVGGGVEPCFV | 0.679 ± 0.021
GRVGRGGAVGEW | 0.671 ± 0.022
GRWRRWSSEGLG | 0.684 ± 0.026
GSAGYLCQCSDI | 0.681 ± 0.017
GSCPPHPALPHL | 0.713 ± 0.048
GSEAVQRKNESC | 0.724 ± 0.08
GSFLSAQRPCPV | 0.661 ± 0.023
GSFPPAAHFSPD | 0.702 ± 0.043
GSGGGGGYVSGN | 0.69 ± 0.021
GSKISIKDKAQV | 0.685 ± 0.07
GSLSIVVCSFEF | 0.542 ± 0.044
GSLVSKLGLGSG | 0.69 ± 0.011
GSPAVACSSPFF | 0.754 ± 0.073
GSRSKLPICGCL | 0.809 ± 0.18
GSRSPEARARFV | 0.68748 ± 0.00064
GSRSPPPLRPPP | 0.6755 ± 0.0012

Sequence | protein stability index
GSSCHFPARCPV | 0.659 ± 0.018
GSSKVKEGNACR | 0.694 ± 0.057
GSSRRMGEGVEM | 0.69 ± 0.02
GSVMGVGLEKKI | 0.732 ± 0.052
GSVRLLDNLQRL | 0.663 ± 0.057
GSVTIDSMIHMR | 0.667 ± 0.037
GSWLGVGDRLVC | 0.717 ± 0.17
GSWMSGLWQTPV | 0.722 ± 0.065
GTCWAGALGVVG | 0.684 ± 0.04
GTDGGRSSLGCR | 0.718 ± 0.026
GTDVGKVSASQG | 0.638 ± 0.037
GTGGIFAVAPTL | 0.737 ± 0.044
GTGRRRGWGVMG | 0.664 ± 0.026
GTLWPLPCRPDG | 0.5607 ± 0.0021
GTMAVWKGQRSG | 0.698 ± 0.04
GTNARGGPINIG | 0.675 ± 0.0065
GTRQLGRTEPGE | 0.695 ± 0.038
GTTDVHLLLECE | 0.729 ± 0.011
GTTNRMVTQKGF | 0.712 ± 0.024
GVCCLWVGFQGG | 0.704 ± 0.017
GVCGVSKGRRHR | 0.701 ± 0.018
GVCWGNFGWRAV | 0.6839 ± 0.005
GVDDGGGCCRVR | 0.773 ± 0.009
